What was measured:
[1] = system: Human pancreatic tumor cells BxPc3, Panc1 and MiaPaCa2; experiment: cell invasion assay on matrigel-coated membranes in transwell plates; type: cell-based; details: Tweak 50 ng/ml; BxPc-3, Panc-1 and MiaPaCa; measured after 48 hours; FIG. 1
Procedure: FIG. 1 is a bar graph showing results from an invasion assay of human pancreatic cell lines with and without added Tweak (Tk), and in the presence or absence of an anti-Tweak antibody (p5g9). HGF is a positive control.
To measure the effect of Tweak on pancreatic tumor cell line invasiveness, cell invasion assays were performed. Human pancreatic tumor cells BxPc3, Panc1 and MiaPaCa2 were plated on matrigel-coated membranes in transwell plates. TWEAK was added to the medium, and the number of cells that invade was measured after 48 hours. BSA was used as a negative control and HGF as a positive control in these experiments.

[2] = system: mammary epithelial line Eph4; experiment: 3-D culture model system of the mammary epithelial line Eph4; type: cell-based; details: Eph4 3-D culture
Source text: We detect Fn14 protein in human tumor cell lines and in xenograft and primary breast tumor samples. Fn14 expression is detected in the majority of human breast tumors but not in normal breast tissue samples. […] The capacity to promote proliferation, inhibit differentiation and induce invasion is consistent with a role for TWEAK in tumorigenesis.

[3] = system: Human pancreatic cells (BxPc-3); experiment: BxPc-3 xenograft pancreatic cancer model; type: in vivo; details: BxPc-3 subcutaneous in nude mice; IP administration started after 2 weeks; versus control antibody (P1.17) or PBS; FIG. 2
Procedure: FIG. 2 is a graph showing growth of human pancreatic tumor cell line BxPc-3 in a xenograft animal model, with and without anti-Tweak antibody (P2D10) treatment.
Human pancreatic cells (BxPc-3) were injected subcutaneously into nude mice. After 2 weeks, when the tumors were […], the mice (9-10 per group) were treated with an anti-TWEAK antibody (P2D10), a control antibody (P1.17) or PBS, by IP administration.

matrix metalloproteinase MMP-9 expression ([2]; following TWEAK treatment) | Molecule | invasion of human pancreatic cell lines (number of cells that invade) [1] | morphogenic phenotype (proliferation, invasiveness, functional differentiation) ([2]; TWEAK treatment) | tumor size [3]
significantly up-regulated | Tweak: TNF-like weak inducer of apoptosis, a member of the tumor-necrosis factor (TNF) superfamily of cytokines (protein, listed as Homo sapiens) MAARRSQRRRGRRGEPGTALLVPLALGLGLALACLGLLLAVVSLGSRASLSAQEPAQEELVAEEDQDPSELNPQTEESQDPAPFLNRLVRPRRSAPKGRKTRARRAIAAHYEVHPRPGQDGAQAGVDGTVSGWEEARINSSSPLRYNRQIGEFIVTRAGLYYLYCQVHFDEGKAVYLKLDLLVDGVLALRCLEEFSATAASSLGPQLRLCQVSGLLALRPGSSLRIRTLPWAHLKAAPFLTYFGLFQVH | induced invasion | induces a dramatic branching morphogenic phenotype | 
 | P2D10: exemplary murine anti-Tweak antibody; heavy chain variable domain SEQ ID NO:3, light chain variable domain SEQ ID NO:4 (antibody, listed as Mus musculus, V domains shown) VH: EVQLVESGGGLVRPGGSLKLFCAASGFTFSRYAMSWVRQSPEKRLEWVAEISSGGSYPYYPDTVTGRFTISRDNAKNTLYLEMSSLKSEDTAMYYCARVLYYDYDGDRIEVMDYWGQGTAVIVSS VL: DVVMTQSPLSLSVSLGDQASISCRSSQSLVSSKGNTYLHWYLQKPGQSPKFLIYKVSNRFSGVPDRFSGSGSGTDFTLKISRVAAEDLGVYFCSQSTHFPRTFGGGTTLEIK |  |  | statistically significant reduction in tumor size

— patent US20100272721A1, “TREATMENT OF CANCER” (Biogen Idec MA Inc., priority 2005, published 2010)
